{"source": "patent EP0599274A1", "target": "HER4/p180erbB4 (human prototype HER4 polypeptide) (human)", "experiment": "cell-based or functional assay"}
{"substance": "recombinant rat neu differentiation factor (NDF) (from UniProt P43322 14-241) (ligand)", "values": [{"measurement": "increase in tyrosine phosphorylation of HER4 after 15 minutes incubation", "result": "2.4 to 4", "unit": "fold"}]}
